According to patent US20090214508A1:

Molecular target: FLAG-tagged R2FasL (pFLAG-FlkFasL; FlkFasL with an N-terminal FLAG epitope tag) (mouse; human) (UniProt P35918)
Assay: cell-based or functional assay

Sequence of FLAG-tagged R2FasL (pFLAG-FlkFasL; FlkFasL with an N-terminal FLAG epitope tag) (mouse; human) (P35918 other isoform, or with tags, fused parts or gaps): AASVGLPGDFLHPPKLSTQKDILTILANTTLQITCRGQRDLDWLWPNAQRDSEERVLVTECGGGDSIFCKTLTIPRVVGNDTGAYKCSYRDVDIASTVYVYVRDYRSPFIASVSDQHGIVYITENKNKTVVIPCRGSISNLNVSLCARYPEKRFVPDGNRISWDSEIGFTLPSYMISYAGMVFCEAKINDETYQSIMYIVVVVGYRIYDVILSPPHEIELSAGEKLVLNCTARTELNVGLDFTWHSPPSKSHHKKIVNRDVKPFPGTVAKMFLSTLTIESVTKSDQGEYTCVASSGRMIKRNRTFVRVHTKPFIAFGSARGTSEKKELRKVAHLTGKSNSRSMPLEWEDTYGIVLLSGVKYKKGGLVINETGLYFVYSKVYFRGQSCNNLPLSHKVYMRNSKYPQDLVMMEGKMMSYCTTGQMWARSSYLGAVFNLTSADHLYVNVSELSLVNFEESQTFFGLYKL

**Q.** With “recombinant human VEGF-165 (from UniProt P15692 27-191) (ligand)” as the substance, how does the ED50 (viability of Jurkat E6.1 cells, resazurin assay) read?
**A.** 0.02 to 0.2 nM
